Measured values taken from article PMC9972910.

Experiments:
[1] = target: LptB2FG complex (Escherichia coli) (UniProt P0A9V1); assay: SPR; LptB2FG or LptB2F^R212GG covalently immobilised, increasing concentrations of monomeric LptA flowed over; fitted at equilibrium; details in Text S1
[2] = target: LptB2F^R212GG complex (Escherichia coli) (UniProt P0A9V1); assay: as above

Kd [1]: 74 µM | Kd [2]: 81 µM
Substance: monomeric version of LptA (from UniProt P0ADV1 28-159) (domain or fragment)
